T1: NdhA (Arabidopsis thaliana (endogenous in the …, UniProt Q37165 1-360))
T1 sequence (looked up): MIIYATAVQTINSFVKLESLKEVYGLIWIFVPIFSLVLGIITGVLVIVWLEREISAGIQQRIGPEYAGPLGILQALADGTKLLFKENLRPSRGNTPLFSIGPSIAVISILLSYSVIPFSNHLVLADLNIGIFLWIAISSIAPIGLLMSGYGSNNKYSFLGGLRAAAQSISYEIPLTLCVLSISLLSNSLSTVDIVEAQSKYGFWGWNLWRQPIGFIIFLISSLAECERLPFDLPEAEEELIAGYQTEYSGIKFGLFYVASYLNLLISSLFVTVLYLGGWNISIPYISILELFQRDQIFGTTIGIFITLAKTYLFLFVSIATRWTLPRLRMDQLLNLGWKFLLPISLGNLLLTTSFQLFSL

B1: PnsB2 (natural protein, UniProt Q94AQ8 18-348, looked up)
chain: SSISAPQTQTINTEKLEDKFGRKGIKFSESNNIPMVELKVRNGSSLKLSLSDAHVLSYKPKVYWKDEGFEEVLYTVDGDESRGGVGVVIVNGEEPKGGSSVISGCDWSVKDTDSDAIDALQIELSCTAGVLDITYIVSLYPVSMATALVVKNNGRKPVTLKPGIMSYLRFKKRSGAGIQGLKGCSYCPNPPLSSPFELLSPSEAMKAESSGWFGSEEGEKPGIWAVEDSVITLLEKKMSRIYGAPPAERLKAVYNTPPSKFETIDQGRGLFFRMIRIGFEEMYVGSPGSMWDKYGKQHYFVCTGPTSMLVPVDVASGETWRGAMVIEHDNL
B2: PnsB1 (natural protein, UniProt Q9S9N6 45-461, looked up)
chain: VNLKKKNNPWLDPFDSGEDPDNEYGSLFADGKQDEDPRPPDNPDNPYGFLKFPKGYTVELASLPLKIRGDVRRCCCVISGGVYENLLFFPTIQLIKDRYPGVQVDILTTERGKQTYELNKNVRWANVYDPDDHWPEPAEYTDMIGLLKGRYYDMVLSTKLAGLGHAAFLFMTTARDRVSYIYPNVNSAGAGLMLSETFTAENTNLSELGYSMYTQMEDWLGRPFRSVPRTPLLPLRVSISRKVKEVVAAKYRNAGAVTGKFIVIHGIESDSKASMQSKGDADSLLSLEKWAKIIKGVRGFKPVFVIPHEKERENVEDFVGDDTSIVFITTPGQLAALINDSAGVIATNTAAIQLANARDKPCIGLFSSEEKGKLFVPYAEEKSNCVIIASKTGKLADIDIGTVKNAMQVFEGSLALV
B3: Lhca6 (natural protein, UniProt Q8LCQ4 34-270, looked up)
chain: SSTGGRLMRERLVVVRAGKEVSSVCEPLPPDRPLWFPGSSPPEWLDGSLPGDFGFDPLGLGSDPDTLKWFAQAELIHSRWAMLAVTGIIIPECLERLGFIENFSWYDAGSREYFADSTTLFVAQMVLMGWAEGRRWADLIKPGSVDIEPKYPHKVNPKPDVGYPGGLWFDFMMWGRGSPEPVMVLRTKEIKNGRLAMLAFLGFCFQATYTSQDPIENLMAHLADPGHCNVFSAFTSH
B4: PnsL2 (natural protein, UniProt Q9XI73 69-190, looked up)
chain: WGTRSFIKEKYFMPGLSPEDAAARIKQTAEGLRDMREMLDHMSWRYVIFYIRLKQAYLSQDLTNAMNILPESRRNDYVQAANELVENMSELDFYVRTPKVYESYLYYEKTLKSIDNVVEFLA
B5: PnsL1 (natural protein, UniProt O80634 81-238, looked up)
chain: AEEIPKSYSPFVDREDGYSYYYPSDWREFDFRAHDSAFKDRYLQLQNVRVRFIPTEKNDIHEVGPMEEVVYDLVKHKFAAPNQVATIYDMKERVEDGKNYYTFEYGLRTPIYATTSFATVAVGNNRYYTLIVGANERRWRKVKKQLQVVADSLKILQI
B6: Lhca5 (natural protein, UniProt Q9C639 33-256, looked up)
chain: AAGGGINPTVAVERATWLPGLNPPPYLDGNLAGDYGFDPLGLGEDPESLKWYVQAELVHSRFAMLGVAGILFTDLLRTTGIRNLPVWYEAGAVKFDFASTKTLIVVQFLLMGFAETKRYMDFVSPGSQAKEGSFFFGLEAALEGLEPGYPGGPLLNPLGLAKDVQNAHDWKLKEIKNGRLAMMAMLGFFVQASVTHTGPIDNLVEHLSNPWHKTIIQTLFTSTS
B7: Lhca2 (natural protein, UniProt Q9SYW8 44-257, looked up)
chain: RAVAADPDRPIWFPGSTPPEWLDGSLPGDFGFDPLGLSSDPDSLKWNVQAEIVHCRWAMLGAAGIFIPEFLTKIGILNTPSWYTAGEQEYFTDKTTLFVVELILIGWAEGRRWADIIKPGSVNTDPVFPNNKLTGTDVGYPGGLWFDPLGWGSGSPAKLKELRTKEIKNGRLAMLAVMGAWFQHIYTGTGPIDNLFAHLADPGHATIFAAFTPK
B8: PnsL5 (natural protein)
chain: not shown
B9: PnsB3 (natural protein, UniProt Q9LU21 49-204, looked up)
chain: AISTAPASQPPAADEPDEPPAVDFAFVHSVLLPDGTPDVHWRRANGGQKLRDIMLDSNIELYGPYSKPLSNCAGVGTCATCMVEIVNGKELLNPRTDIEKEKLKRKPKNWRLACQTNVGNPDSTGLVVIQQLPEWKAHEWNIPKNIPNDDDLETST
B10: NdhD (natural protein, UniProt P26288 1-500, looked up)
chain: MNDFPWLTIIVVFPISAGSLMLFLPHRGNKVNKWYTICICILELLLTTYAFCYNFKMDDPLIQLSEDYKWIDFFDFYWRMGIDGLSIGTILLTGFITTLATLAAFPVTRDSRFFHFLMLAMYSGQIGSFSSRDLLLFFIMWELELIPVYLLLSMWGGKKRLYSATKFILYTAGSSIFLLIGVLGISLYGSNEPTLNLELLANKSYPVTLEILFYIGFLIAFAVKSPIIPLHTWLPDTHGEAHYSTCMLLAGILLKMGAYGLVRINMELLPHAHSMFSPWLLVVGTIQIIYAASTSPGQRNLKKRIAYSSVSHMGFIIIGISSITDPGLNGAILQIISHGFIGAALFFLAGTSYDRIRLVYLDEMGGMAISIPKIFTMFTILSMASLALPGMSGFIAEFIVFFGIITSQKYFLISKIFIIFVMAIGMILTPIYLLSMLRQMFYGYKLINIKNFSFFDSGPRELFLSISILLPIIGIGIYPDFVLSLASDKVESILSNYFYG

Key:
Experiment in all cases: cryo-EM structure
NdhF = NdhF (Arabidopsis thaliana (endogenous in the …, UniProt P56752 1-746))
NdhD = target: B10
PnsB2 = target: B1
NdhA = target: T1, NdhA
PnsL1 = target: B5
PnsB1 = target: B2

NdhF (Arabidopsis thaliana, sequence (P56752 whole entry): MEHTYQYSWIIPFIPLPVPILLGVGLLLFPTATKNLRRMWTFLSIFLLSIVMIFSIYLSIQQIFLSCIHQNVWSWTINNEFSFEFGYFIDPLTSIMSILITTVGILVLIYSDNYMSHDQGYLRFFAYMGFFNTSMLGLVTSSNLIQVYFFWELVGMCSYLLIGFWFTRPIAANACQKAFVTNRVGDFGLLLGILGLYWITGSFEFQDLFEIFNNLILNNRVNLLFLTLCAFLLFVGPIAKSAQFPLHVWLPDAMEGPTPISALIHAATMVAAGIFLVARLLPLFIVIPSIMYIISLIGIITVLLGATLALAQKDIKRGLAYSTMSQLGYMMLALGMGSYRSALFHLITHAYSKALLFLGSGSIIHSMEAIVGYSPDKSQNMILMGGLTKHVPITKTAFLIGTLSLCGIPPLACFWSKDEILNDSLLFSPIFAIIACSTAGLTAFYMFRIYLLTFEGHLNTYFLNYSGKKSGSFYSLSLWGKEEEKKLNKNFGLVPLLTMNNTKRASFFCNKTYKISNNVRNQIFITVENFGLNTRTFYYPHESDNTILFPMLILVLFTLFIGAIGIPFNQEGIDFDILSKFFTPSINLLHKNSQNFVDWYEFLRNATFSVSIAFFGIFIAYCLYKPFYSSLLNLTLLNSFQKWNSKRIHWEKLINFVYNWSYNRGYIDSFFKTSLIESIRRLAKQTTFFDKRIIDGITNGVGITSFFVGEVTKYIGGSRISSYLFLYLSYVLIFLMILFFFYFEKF

Binder: B1
binding result (NdhF): binds

Binder: B2
binding result (NdhF): binds | binding result (NdhD): binds

Binder: B3
binding result (NdhF): binds | binding result (PnsB2): binds

Binder: B4
binding result (NdhA): binds | binding result (PnsL1): binds

Binder: B5
binding result (NdhA): binds

Binder: B6
binding result (PnsB1): binds

Binder: B7
binding result (NdhF): binds

Binder: B8
binding result (NdhD): binds

Binder: B9
binding result (PnsB1): binds | binding result (NdhF): binds | binding result (PnsB2): binds

Binder: B10
binding result (NdhF): binds

Source: article doi:10.1101/2021.12.16.472899 (bioRxiv, 2021)
